Literature values as cited in PMC4752257.

Target: IL-4R alpha (Homo sapiens) (UniProt P24394)
UniProt P24394, sequence (P24394 26-232): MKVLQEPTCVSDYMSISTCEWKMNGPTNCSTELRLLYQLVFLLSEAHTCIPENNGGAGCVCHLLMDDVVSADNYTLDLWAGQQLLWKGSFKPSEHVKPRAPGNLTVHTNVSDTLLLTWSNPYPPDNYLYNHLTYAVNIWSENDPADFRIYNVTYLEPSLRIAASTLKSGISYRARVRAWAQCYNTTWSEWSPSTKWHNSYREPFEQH

**Q.** With IL-4 (from UniProt P05112) as the substance, how does the Kd read?
**A.** The Kd was 0.6 nM.
